This data set is described as follows: soluble on expression in E. coli; label from the status in PepcDB or PDB records.
As for “MKFTPPPASLRNPLIIPEKIMMGPGPSNCSKRVLTAMTNTVLSNFHAELFRTMDEVKDGLRYIFQTENRATMCVSGSAHAGMEAMLSNLLEEGDRVLIAVNGIWAERAVEMSERYGADVRTIEGPPDRPFSLETLARAIELHQPKCLFLTHGDSSSGLLQPLEGVGQICHQHDCLLIVDAVASLCGVPFYMDKWEIDAVYTGAQKVLGAPPGITPISISPKALDVIRNRRTKSKVFYWDLLLLGNYWGCYDEPKRYHHTVASNLIFALREALAQIAEEGLENQIKRRIECAQILYEGLGKMGLDIFVKDPRHRLPTVTGIMIPKGVDWWKVSQYAMNNFSLEVQGGLGPTFGKAWRVGIMGECSTVQKIQFYLYGFKESLKATHPDYIFEESNGFH”, the “soluble on expression in E. coli” value is listed as “soluble”.
The value for “MPEYSSVTGLEGVKFAPLKKENGFYVATKIIDYPYAINAKVNTETSTEKQYADNKLVDMAVTTGSTKLELEMRDLPMEILEELFGIEETDGIYMFKKNVIAPWVAMSFYGPKANGKNRHVGLVKGRFSLPDDEWKTKEEKTDFQTVKLSAEFMEREQDNAYKVLADEDAPNFNLDKFYEKVFGNAYKNPDSGSDNKSSVDIGKTVLEHHHHHH” was “soluble”; that for “RFEHSLGVYHLADRALAHLDISGTRADTVRAAALLHDIGHGPYGHQTEGIIQRRLDRHHDDVAHLVSNGEPGAVLAAHGLDPDRVAALVAGHGKLGQLVAGELDVDRMDYLVRD” was “soluble”; that for “MIDTNLLRVTVCDEGELEKSTTHFIGSRKIEPEQWITWASECKYLPESDAVALCATLIDRLSLEANVVPVSSPVTICGDIHGQFYDLLELFKTGGTVPNTKYVFMGDYVDRGHYSLETVTLLFCLLLKYPNQITLLRGNHESRRISNVYGFYDECQNKYGHGNVHKWFCKVFDVLPIGALIDESVLCVHGGLSPDIRTIDSLMLLDRAQEVPNKGPLCDIMWSDPDDDVEDWVISQRGAGFVFGAKVTEEFLMNNDLSLLCRSHQLVDEGFKYMFNEKLATVWSAPNYCYRCGNAAAVFEIDGNNRSTKYFNAVPDGSREKPDRVVAPYFL” was “not soluble”.
As to “MSLLPSQSPAIFTVSRLNQTVRLLLEHEMGQVWISGEISNFTQPASGHWYFTLKDDTAQVRCAMFRNSSRRVTFRPQHGQQVLVRANITLYEPRGDYQIIVESMQPAGEGLLQQKYEQLKAKLQAEGLFDQQYKKPLPSPAHCVGVITSKTGAALHDILHVLKRRDPSLPVIIYPAAVQGDDAPGQIVRAIELANQRNECDVLIVGRGGGSLEDLWSFNDERVARAIFTSRIPVVSAVGHETDVTIADFVADLRAPTPSAAAEVVSRNQQELLRQVQSTRQRLEMAMDYYLANRTRRFTQIHHRLQQQHPQLRLARQQTMLERLQKRMSFALENQLKRTGQQQQRLTQRLNQQNPQPKIHRAQTRIQQLEYRLAETLRAQLSATRERFGNAVTHLEAVSPLSTLARGYSVTTATDGNVLKKVKQVKAGEMLTTRLEDGWIESEVKNIQPVKKSRKKVHEGHHHHHH”, the “soluble on expression in E. coli” value is given as “not soluble”.
The value for “MAPSMIPFTIKLKTCLKMCIQRLRYAQEKQQAIAKQSRRQVAQLLLTNKEQKAHYRVETLIHDDIHIELLEILELYCELLLARVQVINDISTEEQLVKEHMDDGINEAIRSLIYAILFVDEVKELSQLKDLMAWKINVEFVNGVIADHIDVPEKIIKKCSPSVPKEELVDLYLKEIAKTYDVPYSKLENSLSS” was “soluble”.
Turning to “MGSDKIHHHHHHMAHVNTNGIQIEYEVFGKRTNPTIVLIAGNGAQLNFWESDFCEMLAQHNLQVIRFDNRDAGLSTKFDAAGIPDMSKIYQAAQEGKPIKTAYTLEDMADDVAGLLDALEIKKAHICGASMGGMIAQVFAYRHPLRICSLISIMSSTGNPNNPKISQETLEIVTATPPNQRGAYIEYTVHMWKKLWSKGFPFEEERAIRYTEESYDRCYYPQGAVRQNAALVANGDRRKYLSLLRVPTLVIHGTADPLIPVEAGKDTARTIPNAKLLLIEGMGHDMPKGTWKCIVEAIVSLVRDTSHSCWR”, the “soluble on expression in E. coli” value is on record as “not soluble”.
With “MAIFSRTKRVTDPLDDDAKARILSSHSYILDQDSPRLCELVHGFLEDGPEESFYDSDPDLSETSSAEHSGEASVEIVRMAVSFSDSDPYRNLLLAHVLRAVEVYSGFRSRNKTVFRDKVASFLRELGHDAAVCVSKWTSSSKLIAGSYHFIDVVHKPSDNDQKAVRYLVDLDFASEFEIARPTREYTRGLQLLPNVFVGNEENLRTIVRESCDAAKRSMKSRGLSLPPWRRSSYLQHKWFGPYKRKVGSSLGVKPLNSDAVSCRSLGFDDGAVNTRLFIRA” the entry was “soluble”; with “MSLDFATEYVYPAFSELTGTDKIVAFGDHSHKCPIYVPQTPPCTAECPAGEDIRAINRFLNGTDPSDDPLKSAWETATDTNPFPAVMGRICPHPCQSKCNRGVHDESVAINAVEQVLGNYGIEHNLKLKGPGADTGKRVAIIGGGPAGLSAAYQLRRKGHAVTIYDANEKLGGMVLYGIMGYRVDRKVLEAEIGRIIELGVETKMGVTIGKDITLEQLEAEYDAVFIAVGAQKGRALPVPGFEGTPGATNAIDFLKSYEVLGDDIPVGKHVVVIGDGNVSMDVARLALRLGSQATIISGVPREEMACFENEFDDAKNEGTTMHFLTGTVEVLGGASGVTGLRCTKMVKKEKGEEGWNSPIPFLRYKSNGESFEIEADMVVAAIGQATDLSGLGSAASGPWLKVDRNFRIPGREKLFGGGDALKVDLITTAVGHGRKAAYAIDAFLKGEPMPEEGHHHHHH”, “soluble”; with “MERECEESVVVAVVTEPRFTQRYRDYLEEQKLLDRLHRVAKLRDGAVALPVLAESLSEQHLQELRDRVAPGSTCVLTRLPDPLPSKKARVRSPAQILCLEVRRWVEDRGVTWSAELEADLPRSWQRHGDLMLLSEDCFQATLWKGLEPELWETVASALGVQRLAKRGRVLPDGTRTPSVTLLLGDHGWVEHMDNGIRYKFDVTQCMFSFGNITEKLRVASLSCAGEVLVDLYAGIGYFTLPFLVHAGAAFVHACEWNPHAVVALRNNLEINGVADRCQIHFGDNRKLKLSDIADRVNLGLIPSSKEGWPVACQVLRKDVGGILHIHQNVESFSGKTPQPPGSNNVEKEHWPRPQKITTDTQGNGTTENFRGEISSANKPEWWRWAESAETQIASLLHQVHGKPWRTRILHVHPVKSYAPHVDHIVLDLECRPLTSSWPEGVDLLTQ”, “soluble”.
With “MGSDKIHHHHHHMFSPTKLKEKRESQGLSQSQLASSLGISRVSYFNWESGKTKPNQNNLSKLSQILTVDPCYFESEYEIVETYLKLTEKNQKATLHYATELLNKQNEKVVDIPERFAYKVYEKLSAGTGTAYFDDGNYDTVYFNHQFDYDFASWVFGNSMEPTYENGSVALIKQTGFDYDGAIYAIDWDGQTYIKKVYREENGLRLVSLNRNYSDKFAPYDENPRIIGKIVGNFMPLED” the entry was “not soluble”; with “LAIFLIDLPPSDMERRLGDALTVYVDAMRYPRGTETLRAPMWLEHIRRRGWQAVAAVEVTAAEQAEAADTTALPSAAELSNAPMLGVAYGYPGAPGQWWQQQVVLGLQRSGFPRLAIARLMTSYFELTELHILPRAQGRGLGEALARRLLAGRDEDNVLLSTPETNGEDNRAWRLYRRLGFTDIIRGYHFAGDPRAFAILGRTLPL”, “not soluble”.
The value for “MRSVLQSEVSECGLASLAMVANAHGKHLTLSQLRQRFPSSLKGAKLTHLVHIAQQLGFSTRPLRLDMEDLGKLKLPCILHWDLNHFVVLAKVGTTKVTIYDPAIGKRKLSLNEVSKYFTGIALELTTTTE” was “not soluble”; that for “MGKRNLDETMNESTVSEANGDATAPTTEKDEYQALCELVNPIAQPLANRKLAKKVYKLIKKASAGDKTLREGIKDVQKELRRNEKGICILAGNVSPIDVYSHIPGICEEKEIPYVYIPSREQLGLAVGHRRPSILIFVKPSGDFKELYDEVAEALRHLTVEAA” was “not soluble”; that for “GLEAVRKRPGMYIGSTSERGLHHLVWEIVDNSIDEALAGYANQIEVVIEKDNWIKVTDNGRGIPVDIQEKMGRPAVEVILTSSVVNALSQDLEVYVHRNETIYHQAYKKGVPQFDLKEVGTTDKTGTVIRFKADGEIFTETTVYNYETLQQRIRELAFLNKGIQITLRDERDEENVREDSYHYE” was “soluble”.
Turning to “MGSSHHHHHHSSGLVPRGSHMASERPVSTLSSQITGELRELNPQATGSSTSLVGQSLFQHSSLDTSQFGLNASIAEVLNASFKDGMLQNSQLIGEIALNYLPNSVMNSPLPIGINLRINNGAKFEKVILNQAFIERVAPEEFKVNPSFIDSRTLGAIKYSIKEPIAPIVIHPVWRFESHQASVVLTVKMSPSLPDEISQIVIEDLVVFVNIDGANATSALSKPQGSFSKEKKRITWRFKEPVVLTRNGEGQRLIARFITDGLAHESAKGVITKFTISETDNVALPHSGAGSGITLTCQELDENNPFGGEWLDVNTKRTLTTGNYHGLA”, the “soluble on expression in E. coli” value is listed as “soluble”.
The value for “IGEVDLTVRANMTYSKNEIKEYDEENSRYPYKMKYGFRVDQARGLIAEGLFKDYEEIRNRPSQGSGIMPGDIKYKDVNGDGVINGDDEVPIGATTRPNLIYGFGVSAQWKEFDINVHFQGAGKSSFFIDGFTVYPFQEKSWGNILTDVVGNYWSLGTNEDPNAKYPRLSYGGNSNNYRASTYWLRNGSYIRLKNVELGYNIPKRFVNKLHLDRVRLYLMGTNLLTFSDFKLWDPELGSSNGQQYPLSRTVTIGLTVGI” was “not soluble”; that for “MGSDKIHHHHHHMRKDKNGTQEPKAKYRVRNWAAYNAGLINRGNITMWIGDDALANMPDTEPTRGRSRLYSDALIQALLGLKTVFHLPLRALQGFAQSLRDLAFAELPVPNYTTVCRRAQALQVKLPVIHSDEPLHLVVDSTGAKVCGEGEWKVRQHGYSKRRTWRKVHLALDANTGQLRAALMTHQDVADGEVLPELLEQISADESIDTIGGDGAYDTQACYASITARGALPSIPPREGAVHWPTTTPGASRRNAALDAIAQGSRREWKQQSGYHRRSLAENAMYRLKTLTGPCLWARRTDTQATEVAVRVGVLNRMAELSRPQSVRIARDHEQRHHFVLTPDLCNNVHSSAERRQGRVSCAMHATI” was “not soluble”; that for “MGSDKIHHHHHHMNDPLDPLPSLNALRAFEAASRHLNFRLAAGELGVTQGAVAQHVRGLESSIGLVLFERRPRALVLTENGRSYAASVRRAFDLLVEATQALRPQPLQLTISVTPTFAAKWLIPRLQDFTAAHPEIDLRIIATDRLSHFQTDAIDLAVRYGQPPFGVGLNAECLFESVLVAVGSPRLANELRSSGAARFFARYPLLHDAHNQWPPFLQEVLKQSAAIGEKNIRFNQTSLAIDAAMAGQGIALAPFAFVGRAIAMGGLSRIFDVELRTGSGFYVVTPRRLRHPGPVAAVRGWLLKQGREQMCD” was “not soluble”.
With “EHIEELLRNIRTQVLIKLIKPYTRIHIPFISKELNIDVADVESLLVQCILDNTIHGRIDQVNQLLELDHQKRGGARYTALDKW” the entry was “soluble”; with “MRGSHHHHHHGSMKRAVITGLGIVSSIGNNQQEVLASLREGRSGITFSQELKDSGMRSHVWGNVKLDTTGLIDRKVVRFMSDASIYAFLSMEQAIADAGLSPEAYQNNPRVGLIAGSGGGSPRFQVFGADAMRGPRGLKAVGPYVVTKAMASGVSACLATPFKIHGVNYSISSACATSAHCIGNAVEQIQLGKQDIVFAGGGEELCWEMACEFDAMGALSTKYNDTPEKASRTYDAHRDGFVIAGGGGMVVVEELEHALARGAHIYAEIVGYGATSDGADMVAPSGEGAVRCMKMAMHGVDTPIDYLNSEGTSTPVGDVKELAAIREVFGDKSPAISATKAMTGHSLGAAGVQEAIYSLLMLEHGFIAPSINIEELDEQAAGLNIVTETTDRELTTVMSNSFGFGGTNATLVMRKLKD”, “soluble”.

Source of the values: the DeepSol protein solubility set.
